Measured values published in patent US11179342B2, “Peptide coacervates and methods of use thereof” (NANYANG TECHNOLOGICAL UNIVERSITY, priority 2018, dated 2021).
Entries after “also recorded” stand apart in the source; their conditions may differ.

Legend:
Type in all cases: physicochemical
[1] = Liquid-liquid phase separation by optical microscopy; settings: for ability to undergo LLPS / phase separation: various pH and salt (NaCl) concentration; for morphology of the separated phase: optical micrographs after LLPS; for range of conditions allowing LLPS: compared among variants; for highest pH at which LLPS was observed: N-variants, high salt; for minimal peptide concentration for LLPS at the highest pH: V7-N at pH 8, V6-N at pH 7, high salt
Method: In Example 2 below, phase separation behavior of protein variants and peptides was studied using a Zeiss Axio Scope A1 microscope (Carl Zeiss Pte Ltd., Germany) in the reflection mode, with differential interference contrast (DIC) filters. Images were taken with an AxioCam MRc 5 camera under the control of AxioVision software.
Liquid-liquid phase separation properties of protein variants and peptides at different buffer conditions were assessed using the method described in (Tan et al, Nat. Chem. Biol. 11, 488-495). Briefly, protein/peptide stock solution (10 mg/mL in 10 mM acetic acid, pH 3.3) was added to a buffer solution in a volume ratio 1:5 (protein/peptide stock:buffer). The mixture was then pipetted onto a microscopy glass slide and imaged using the optical microscope.

[2] = Circular dichroism spectroscopy of insulin
Description: Circular dichroism (CD) spectra was collected using a quartz cuvette of 0.2/0.5 mm optical pathlength. Data collection was done on AVIV 420 Circular Dichroism spectrometer with the following parameters: average of three scans per experiment between wavelength range from 190 to 250 nm, 1.0 nm wavelength steps with 1.00 nm bandwidth and 0.1 s averaging time. Each experiment was repeated for 3 times and averaged to obtain the final spectrum. The final spectrum was then smoothed and plotted using originPro9.1.

[3] = Dynamic light scattering of GY-23 peptide
Method: FIGS. 30A-30C. SAXS and DLS of GY-23 peptide. (A) SAXS experimental curves of the peptide before and after coacervation. After LLPS, the dilute and coacervate-rich phases were measured following centrifugation. The q-3 power-law region of the scattering data is highlighted, with the black line a guide for the eye. The calculated fit for the peptide assemblies from the IFT method is also presented as a continuous red line. (B) Corresponding p(r) profile calculated from the SAXS data in (A) using Eq. 1 (materials and methods). (C) Hydrodynamic diameter (DH) measured by DLS of GY-23 in acetic acid (pH 3.3) and after coacervation (pH 7.0).
FIGS. 34A-34B Correlation functions of the DLS measurements of GY-23 peptide before and after coacervation (FIG. 33C) showing the intensity correlation function, C(τ) vs. the correlation time, τ. (A) Sample before coacervation (10 mM in acetic acid, pH 3.3). The curve with a single decay at short correlation times represents a monomodal distribution of rather small particles in the nanometer range. (B) Sample after LLPS (coacervation buffer, pH 7.0).

## GY-15-V1: 3 copies of the GHGLY motif arranged in tandem (GHGLYGHGLYGHGLY)
[1]
  ability to undergo LLPS / phase separation: no phase separation was observed

## GHGLY [pentapeptide]
[1]
  ability to undergo LLPS / phase separation: no phase separation was observed

## GY-15-V2: GAGFA motif flanked by GHGLY (GHGLYGAGFAGHGLY; Artificial peptide GY-15-V2)
[1]
  ability to undergo LLPS / phase separation: no phase separation was observed

## insulin [reference compound]
[2]; pH 5.5 to 7.5
  CD: secondary structure: not disrupted

## GHGLYGAGFAGAGFAGAGFAGHGLY (GHGLYGAGFAGAGFAGAGFAGHGLY) [GY-25-V1]
[1]
  morphology of the separated phase: dense and compact hydrogel

## GHGLY GAGFA GHGLH GFA GHGLY (GHGLYGAGFAGHGLHGFAGHGLY) [GY-23]
[1]
  morphology of the separated phase: coacervate micro-droplets suspended in solution as well as a dense hydrogel-like structure; also recorded: micro-droplets as well as hydrogel-like condensed coacervates
  ability to undergo LLPS / phase separation: phase-separated
[3]; acetic acid (pH 3.3), before LLPS
  hydrodynamic diameter (DH): ca. 8 nm
[3]; pH 7.0, initiation of LLPS
  hydrodynamic diameter (DH): around 50 nm

## GHGLY GHGLY GHGLY GHGLY (GHGLYGHGLYGHGLYGHGLY) [GY-20]
[1]
  morphology of the separated phase: only formed micro-droplets
  ability to undergo LLPS / phase separation: Phase separation was observed

## GHGLYGHGLHGHGLHGHGLHGHGLY (GHGLYGHGLHGHGLHGHGLHGHGLY) [GY-25-V2]
[1]
  morphology of the separated phase: only formed micro-droplets

## GA-25: synthetic peptide of HBP-1 repeats harboring only one GHGLY motif (GAGFAGHGLHGAGFAGHGLYGAGFA; HBP-1 derived peptide GA-25)
[1]
  ability to undergo LLPS / phase separation: remained in solution in all tested buffer conditions

## GH-25: synthetic peptide of HBP-1 repeats harboring only one GHGLY motif (GHGLHGAGFAGHGLYGAGFAGHGLH; HBP-1 derived peptide GH-25)
[1]
  ability to undergo LLPS / phase separation: remained in solution in all tested buffer conditions

## released insulin: insulin released from dissociated coacervates
[2]; after coacervation and release
  CD: characteristic minima of α-helices at 208 and 222 nm: still visible

## GAGFA [pentapeptide]
[1]
  ability to undergo LLPS / phase separation: no phase separation was observed

## V3-C: C-terminus fragment of DgHBP-1 Lys mutant after trypsin cleavage, longest section of repetitive region (GHGLHGAGFAGHGLYGAGFAGHGLHGFAGHGLYGAGFAGHGLGLGGLHGALGHGALAHY; HBP-1 derived peptide V3-C)
[1]
  range of conditions allowing LLPS: broadest pH range among all tested variants
[1]; pH 8
  lowest protein concentration of phase separation: 30 µM

B1: C-terminal (A82-R172): DgHBP-2 C-terminal trypsin fragment containing the whole repetitive region (protein)
chain: AAQGANAVHNDAAQSHSALAAANTFGHGHAPYAAYGHGVYGHGPYGHGPYGHGLYGHGLYGHGPYGHGLYGHGAFGHGLNAYAPLVGHGLR
modifications: C-terminal fargment of HBP-2
notes: DgHBP-2 C-terminal trypsin fragment containing the whole repetitive region
[1]
  ability to undergo LLPS / phase separation: phase-separated into coacervates

B2: V3-N: N-terminus fragment of DgHBP-1 Lys mutant after trypsin cleavage (protein)
chain: MQLYGAPAVGGVVENAVNAAESGAAATHDAQGAYAEADTAGVLDVNHAEHHDGVHDASGYGFGGLAGHGGFAGHGLYGPGFAGHGLLGAGYAGLGLHGAGFAK
modifications: HBP-1 derived peptide V3-N
notes: N-terminus fragment of DgHBP-1 Lys mutant after trypsin cleavage
[1]
  ability to undergo LLPS / phase separation: could not be induced

B3: V7-N: N-terminus fragment of DgHBP-1 Lys mutant after trypsin cleavage (protein)
chain: MQLYGAPAVGGVVENAVNAAESGAAATHDAQGAYAEADTAGVLDVNHAEHHDGVHDASGYGFGGLAGHGGFAGHGLYGPGFAGHGLLGAGYAGLGLHGAGFAGHGLHGAGFAGHGLYGAGFAK
modifications: HBP-1 derived peptide V7-N
notes: as for B2
[1]
  highest pH at which LLPS was observed: 8
  minimal peptide concentration for LLPS at the highest pH: at least 500 μM
  range of conditions allowing LLPS: over a wider range of conditions
  morphology of the separated phase: hydrogels
  ability to undergo LLPS / phase separation: only at high salt concentrations

B4: DgHBP-1: recombinant histidine-rich beak protein 1 of Humboldt squid (Dosidicus gigas) (protein)
chain: QLYGAPAVGGVVENAVNAAESGAAATHDAQGAYAEADTAGVLDVNHAEHHDGVHDASGYGFGGLAGHGGFAGHGLYGPGFAGHGLLGAGYAGLGLHGAGFAGHGLHGAGFAGHGLYGAGFAGHGLHGFAGHGLYGAGFAGHGLGLGGLHGALGHGALAHY
modifications: Dosidicus gigas
[1]; at minimal concentration
  pH range of LLPS: 6.5-7.5
[1]; pH range 6.5-7.5
  minimal concentration for LLPS: 20 to 30 µM

B5: V6-N: N-terminus fragment of DgHBP-1 Lys mutant after trypsin cleavage (protein)
chain: MQLYGAPAVGGVVENAVNAAESGAAATHDAQGAYAEADTAGVLDVNHAEHHDGVHDASGYGFGGLAGHGGFAGHGLYGPGFAGHGLLGAGYAGLGLHGAGFAGHGLHGAGFAGHGLYK
modifications: HBP-1 derived peptide V6-N
notes: as for B2
[1]
  highest pH at which LLPS was observed: 7
  minimal peptide concentration for LLPS at the highest pH: 400 μM
  range of conditions allowing LLPS: over a wider range of conditions
  morphology of the separated phase: hydrogels
  ability to undergo LLPS / phase separation: only at high salt concentrations

B6: V2-C: DgHBP-1 variant lacking the first 31 amino acids of the repetitive region, truncated at G98 (protein)
chain: MHHHHHHSSGVDLGTENLYFQSMMGAGFAGHGLHGAGFAGHGLYGAGFAGHGLHGFAGHGLYGAGFAGHGLGLGGLHGALGHGALAHY
modifications: HBP-1 derived peptide V2-C
notes: DgHBP-1 variant lacking the first 31 amino acids of the repetitive region, truncated at G98
[1]
  protein concentration required to form coacervates: ca. 30 μmol
  ability to undergo LLPS / phase separation: formed coacervates
[1]; listed as V-2C
  ability to undergo LLPS / phase separation: underwent LLPS in the same way as full-length protein

B7: V5-N: N-terminus fragment of DgHBP-1 Lys mutant after trypsin cleavage (protein)
chain: MQLYGAPAVGGVVENAVNAAESGAAATHDAQGAYAEADTAGVLDVNHAEHHDGVHDASGYGFGGLAGHGGFAGHGLYGPGFAGHGLLGAGYAGLGLHGAGFAGHGLHGAGFAK
modifications: HBP-1 derived peptide V5-N
notes: as for B2
[1]
  highest pH at which LLPS was observed: ≤ 6
  range of conditions allowing LLPS: only under narrow conditions
  morphology of the separated phase: hydrogels
  ability to undergo LLPS / phase separation: only at high salt concentrations

B8: N-terminal (M1-R81) fragment: DgHBP-2 N-terminal trypsin fragment lacking the modular repeats (protein)
chain: MQFFGAGPFNTAHHSAVSDAAAAHHDAAGEYAQNAATGLLDTHHNENHDMTHDLANGYGLHEHDEQHHGLADGLHQEYAAR
modifications: N-terminal fragment of HBP-2
notes: DgHBP-2 N-terminal trypsin fragment lacking the modular repeats
[1]
  ability to undergo LLPS / phase separation: only the C-terminal fragment phase-separated

B9: V1-C: DgHBP-1 mutant lacking the first 66 amino acids, containing all C-terminal modular repeats (protein)
chain: MHHHHHHSSGVDLGTENLYFQSMMGHGGFAGHGLYGPGFAGHGLLGAGYAGLGLHGAGFAGHGLHGAGFAGHGLYGAGFAGHGLHGFAGHGLYGAGFAGHGLGLGGLHGALGHGALAHY
modifications: HBP-1 derived peptide V1-C
notes: DgHBP-1 mutant lacking the first 66 amino acids, containing all C-terminal modular repeats
[1]
  ability to undergo LLPS / phase separation: underwent phase separation and formed coacervates; also recorded: underwent LLPS in the same way as full-length protein

B10: V4-N: N-terminus fragment of DgHBP-1 Lys mutant after trypsin cleavage (protein)
chain: MQLYGAPAVGGVVENAVNAAESGAAATHDAQGAYAEADTAGVLDVNHAEHHDGVHDASGYGFGGLAGHGGFAGHGLYGPGFAGHGLLGAGYAGLGLHK
modifications: HBP-1 derived peptide V4-N
notes: as for B2
[1]
  ability to undergo LLPS / phase separation: could not be induced
